{"source": "paper PMC5118228", "about": "(EJNMMI Research, 2016)", "key": {"AR42J tumor": {"test_system": "AR42J tumor", "conditions": "low-dose (16.8 ± 1.3 MBq) and high-dose (33.1 ± 3.7 MBq); AR42J tumor-bearing mice", "quoted_text": "Athymic male nu/nu mice (Tachonic), 6–8 weeks old, were used in all studies. Tumor models were established by inoculating 5 × 10^6 rat pancreatic tumor AR42J cells (American Type Culture Collection) with high SSTR2 expression into the right hind flank of the animals. After 3 weeks, the tumor size reached approximately 200 mm^3. All animal experiments were carried out following Institutional Animal Care and Use Committee-approved protocol.\nToxicity and therapeutic efficacy were investigated in 18 animals (n = 6/cohort): control, low-dose (cumulative 16.8 ± 1.3 MBq), and high-dose (cumulative 33.1 ± 3.7 MBq) cohorts. Treatment started 23 days after xenograft inoculation. Control mice received in total 4 × 0.3 nmol DOTATATE on two consecutive days. Two injections of 0.3 nmol DOTATATE per day were given, with a time interval of at least 6 h. […] The high-dose cohort received four doses on two consecutive days, twice a day with a time interval of at least 6 h. […] Animals were monitored for 30 days starting on the day of treatment. Tumors were measured by caliper, and animals were weighed at least twice weekly. The endpoints chosen were weight loss >15% and tumor volume >2000 mm^3. […]"}, "[1]": {"test_system": "neutrophil gelatinase-associated lipocalin (NGAL)", "experiment": "Serum NGAL by ELISA (kidney injury biomarker)", "assay_type": "in vivo, mice", "experimental": "MTD was defined as the highest dose given to the animals allowing 100% survival with no significant weight loss >15% throughout the experiment. Nontumor-bearing mice were randomly divided into seven cohorts used to evaluate MTD, six treatments and one control (n = 8/cohort); see Table 1. […] Control mice received DOTATATE (4 × 0.3 nmol) on four consecutive days. The animals were followed for 90 days. Serum was analyzed for the biomarker neutrophil gelatinase-associated lipocalin (NGAL) using ELISA (R&D Systems, 450 nm)."}}}
{"smiles": "C[C@@H](O)[C@H](NC(=O)[C@@H]1CSSC[C@H](NC(=O)[C@@H](Cc2ccccc2)NC(=O)CN2CCN(CC(=O)O)CCN(CC(=O)O)CCN(CC(=O)O)CC2)C(=O)N[C@@H](Cc2ccc(O)cc2)C(=O)N[C@H](Cc2c[nH]c3ccccc23)C(=O)N[C@@H](CCCCN)C(=O)N[C@@H]([C@@H](C)O)C(=O)N1)C(=O)O", "note": "[^213Bi-DOTATATE, metal not drawn]", "values": [{"measurement": "tumor volume", "setting": "AR42J tumor", "result": "significantly decreased"}, {"measurement": "NGAL level", "setting": "[1]; high-dose(−), 28.7 ± 1.2 MBq, without L-lysine, serum ELISA", "result": "15.8 ± 3.5", "unit": "ng/mL"}, {"measurement": "nephrotoxicity (NGAL)", "setting": "[1]; low-dose(−) and low-dose(+) cohorts", "result": "No nephrotoxicity"}]}
